Molecular target: T1, Elastase (Homo sapiens, UniProt P08246)
T1 sequence (P08246 30-267): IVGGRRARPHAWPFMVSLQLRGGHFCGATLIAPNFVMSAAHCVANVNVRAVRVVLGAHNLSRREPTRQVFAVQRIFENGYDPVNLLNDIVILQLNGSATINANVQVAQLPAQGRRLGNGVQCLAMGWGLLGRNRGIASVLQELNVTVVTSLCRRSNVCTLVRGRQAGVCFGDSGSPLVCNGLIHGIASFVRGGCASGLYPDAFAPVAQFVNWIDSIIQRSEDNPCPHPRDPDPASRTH
Test: Reaction of Trx-Ela-Sub 1-RBB with Elastase
Type: biochemical
Details: incubated with and without Elastase containing buffer; FIG. 10
Procedure: The stained and purified peptide construct was applied on a cellulose surface and dried at 37° C. for 2 h. Unbound Trx-Ela-Sub 1-RBB was removed with H20. The stripes with the applied Elastase substrate were incubated with and without Elastase containing buffer, respectively.

dye release from cellulose stripes: Elastase responsive dye release
B1: Trx-Ela-Sub 1-RBB: purified Trx-Ela-Sub1 fusion protein stained with vinyl sulfone dye remazol brilliant blue R (conjugate)
chain: MSDKIIHLTDDSFDTDVLKADGAILVDFWAEWCGPCKMIAPILDEIADEYQGKLTVAKLNIDQNPGTAPKYGIRGIPTLLLFKNGEVAATKVGALSKGQLKEFLDALAGSGSGHMHHHHHHSSGLVPRGSGMKETAAAKFERQHMDSPDLGTDDDDKAMGGSCGGGGSAAPVGGGGSAAPVGGGGSPPGGNRGTTTTRRPATTTGSSPGPTQSHYGQCGGIGYSGPTVCASGTTCQVLNPYYSQCLLEHHHHHH

Reference: US20230213525A1, “DETECTING MICROBIAL INFECTION IN WOUNDS” (QUALIZYME DIAGNOSTICS GMBH & CO KG, priority 2016, published 2023)
